Results: patent US20070264195A1 (H LUNDBECK A S, published 2007)

T1: purified human Sortilin extracellular domain (human, UniProt Q99523 78-755)
T1 construct: also called immobilized Sortilin; NTR-3
T1 sequence: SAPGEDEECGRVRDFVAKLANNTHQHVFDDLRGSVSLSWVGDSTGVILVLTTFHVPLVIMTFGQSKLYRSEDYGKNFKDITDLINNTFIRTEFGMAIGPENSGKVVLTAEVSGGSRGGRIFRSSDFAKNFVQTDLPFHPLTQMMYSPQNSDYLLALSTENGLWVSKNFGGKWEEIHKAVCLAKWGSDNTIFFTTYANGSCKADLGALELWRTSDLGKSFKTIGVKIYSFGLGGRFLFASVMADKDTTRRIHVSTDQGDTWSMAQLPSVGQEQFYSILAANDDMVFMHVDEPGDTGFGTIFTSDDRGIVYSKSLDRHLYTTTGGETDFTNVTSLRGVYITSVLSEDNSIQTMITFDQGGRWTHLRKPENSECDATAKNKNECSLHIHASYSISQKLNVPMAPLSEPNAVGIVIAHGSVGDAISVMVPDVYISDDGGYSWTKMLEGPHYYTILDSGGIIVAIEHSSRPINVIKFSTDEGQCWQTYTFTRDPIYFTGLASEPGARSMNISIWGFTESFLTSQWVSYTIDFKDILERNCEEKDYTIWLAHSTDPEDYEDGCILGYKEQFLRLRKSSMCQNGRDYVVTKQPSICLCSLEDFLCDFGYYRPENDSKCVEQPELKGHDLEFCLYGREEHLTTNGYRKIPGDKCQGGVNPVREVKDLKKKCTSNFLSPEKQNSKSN

B1: Mature recombinant human BDNF (Promega #G1491) (ligand)
chain: HSDPARRGELSVCDSISEWVTAADKKTAVDMSGGTVTVLEKVPVSKGQLKQYFYETKCNPMGYTKEGCRGIDKRHWNSQCRTTQSYVRALTMDSKKRIGWRFIRIDTSCVCTLTIKRGR
notes: also called mature BDNF
B2: recombinant human p75 neurotrophin receptor/Fc chimera (R&D Systems) (Fc fusion, UniProt P08138 29-250, looked up)
chain: KEACPTGLYTHSGECCKACNLGEGVAQPCGANQTVCEPCLDSVTFSDVVSATEPCKPCTECVGLQSMSAPCVEADDAVCRCAYGYYQDETTGRCEACRVCEAGSGLVFSCQDKQNTVCEECPDGTYSDEANHVDPCLPCTVCEDTERQLRECTRWADAECEEIPGRWITRSTPPEGSDSTAPSTQEPEAPPEQDLIASTVAGVVTTVMGSSQPVVTRGTTDN
notes: Bought reagent; also called p75-IgG-Fc chimeric protein; p75NTR; not shown: IgG Fc of the bought chimera
B3: pro-domain of human BDNF fused to GST (glutathione S-transferase), produced in E. coli (other)
chain: APMKEANIRGQGGLAYPGVRTHGTLESVNGPKAGSGLTSLADTFEHVIEELLDEDQKVRPNEENNKDADLYTSRVMLSSQVPLEPPLLFLLEEYKNYLDAANMSMRVRR
notes: The residues 19-127 come from the description of the propart for BDNF; also called GST-pro-domain of proBDNF; pro-domain of proBDNF (a GST-fusion protein); not shown: glutathione S-transferase (GST) fusion partner
B4: Rat proBDNF (produced in 293 cells, purified from conditioned medium) (ligand, UniProt P23363 19-249, looked up)
chain: APMKEANVHGQGNLAYPAVRTHGTLESVNGPRAGSRGLTTTSLADTFEHVIEELLDEDQKVRPNEENHKDADLYTSRVMLSSQVPLEPPLLFLLEEYKNYLDAANMSMRVRRHSDPARRGELSVCDSISEWVTAADKKTAVDMSGGTVTVLEKVPVSKGQLKQYFYETKCNPMGYTKEGCRGIDKRHWNSQCRTTQSYVRALTMDSKKRIGWRFIRIDTSCVCTLTIKRGR
notes: Pro-form of BDNF
B5: human NGF-propeptide expressed in E. coli (peptide)
chain: EPHSESNVPAGHTIPQVHWTKLQHSLDTALRRARSAPAAAIAARVAGQTRNITVDPRLFKKRRLRSPRVLFSTQPPREAADTQDLDFEVGGAAPFNRTHRSKR
notes: The residues 19-121 come from the description of the propart for NGF; also called proNGF propeptide; propeptide of proNGF
B6: Mature murine NGF (Austral Biologicals) (ligand, UniProt P01139 122-241, looked up)
chain: SSTHPVFHMGEFSVCDSVSVWVGDKTTATDIKGKEVTVLAEVNINNSVFRQYFFETKCRASNPVESGCRGIDSKHWNSYCTTTHTFVKALTTDEKQAAWRFIRIDTACVCVLSRKATRRG
notes: mature; also called nerve growth factor

Experiments:
[1] = molecular target: T1, purified human Sortilin extracellular …; assay: SPR (BIAcore), other preparations of mature BDNF over immobilized Sortilin; other preparations of mature BDNF
[2] = molecular target: T1, purified human Sortilin extracellular …; assay: SPR (BIAcore), 5-500 nM BDNF over Sortilin extracellular domain immobilized at 94 fmol/mm2; Promega #G1491 preparation
Description: (§1) FIG. 7: Characterization of proBDNF and BDNF binding to purified Sortilin as measured by surface plasmon resonance (BIAcore). Rat proBDNF was produced in 293 cells as described in Lee, R., Kermani, P., Teng, K. K. & Hempstead, B. L. Regulation of cell survival by secreted proneurotrophins. Science 294, 1945-1948 (2001). and purified from the conditioned medium. Mature recombinant human BDNF was from Promega (#G1491) and the pro-domain of human BDNF fused to GST (glutathione S-transferase) was produced in E. coli and purified by glutathione-sepharose affinity chromatography. Binding of 5-500 nM proBDNF (upper panel), pro-domain of proBDNF (a GST-fusion protein, middle panel) or BDNF (lower panel) was measured to 94 fmol/mm2 immobilized purified Sortilin extracellular domain. The experiment was carried out essentially as described for FIGS. 2-4.

[3] = molecular target: T2, Human recombinant proNGF (produced in E. coli) (human, UniProt P01138 19-241); assay: SPR (BIAcore), 25-500 nM proNGF over p75-IgG-Fc immobilized at 91.5 fmol/mm2
T2 construct: The end 241 is the end of the entry as printed
Procedure: (§2) FIG. 3: Characterization of proNGF binding to p75, TrkA, and Sortilin as measured by surface plasmon resonance analysis (BIAcore). Binding of 25-500 nM proNGF was measured to 91.5 fmol/mm² immobilized p75-IgG-Fc chimeric protein (upper panel), to 66 fmol/mm² immobilized TrkA-IgG-Fc (middle panel), and to 51 fmol/mm² purified Sortilin extracellular domain (lower panel).

[4] = molecular target: T1, purified human Sortilin extracellular …; assay: SPR (BIAcore), 5-500 nM GST-pro-domain over Sortilin extracellular domain immobilized at 94 fmol/mm2
Description: as §1

[5] = molecular target: T1, purified human Sortilin extracellular …; assay: SPR (BIAcore), 5-500 nM proBDNF over Sortilin extracellular domain immobilized at 94 fmol/mm2
Description: as §1

[6] = molecular target: T1, purified human Sortilin extracellular …; assay: SPR (BIAcore), 25-500 nM propeptide over Sortilin extracellular domain immobilized at 51 fmol/mm2
Procedure: (§3) FIG. 4: Characterization of binding of the proNGF propeptide to p75, TrkA, and Sortilin as measured by surface plasmon resonance analysis (BIAcore). Binding of 25-500 nM propeptide was measured to 91.5 fmol/mm² immobilized p75-IgG-Fc chimeric protein (upper panel), to 66 fmol/mm² immobilized TrkA-IgG-Fc (middle panel), and to 51 fmol/mm² purified Sortilin extracellular domain (lower panel). […] There was no detectable binding to p75 and TrkA.

[7] = molecular target: B2; assay: SPR (BIAcore), p75-IgG-Fc immobilized at 91.5 fmol/mm2
Procedure: as §3

[8] = molecular target: T3, recombinant human TrkA/Fc chimera (R&D Systems) (human, UniProt P04629-2 34-407); assay: SPR (BIAcore), TrkA-IgG-Fc immobilized at 66 fmol/mm2
T3 construct: Bought reagent; also called TrkA-IgG-Fc; not shown: IgG Fc of the bought chimera
Procedure: as §3

[9] = molecular target: T1, purified human Sortilin extracellular …; assay: SPR (BIAcore), 50-500 nM NGF over Sortilin extracellular domain immobilized at 51 fmol/mm2
Procedure: as §2, with “2:” for “3:”, “NGF” for “proNGF”, “50-500” for “25-500”

[10] = molecular target: T3, recombinant human TrkA/Fc chimera (R&D …); assay: SPR (BIAcore), 50-500 nM NGF over TrkA-IgG-Fc immobilized at 66 fmol/mm2
Procedure: as §2, with “2:” for “3:”, “NGF” for “proNGF”, “50-500” for “25-500”

[11] = molecular target: B2; assay: SPR (BIAcore), 50-500 nM NGF over p75-IgG-Fc immobilized at 91.5 fmol/mm2
Procedure: as §2, with “2:” for “3:”, “NGF” for “proNGF”, “50-500” for “25-500”

T3 sequence (P04629 other isoform, or with tags, fused parts or gaps mutant): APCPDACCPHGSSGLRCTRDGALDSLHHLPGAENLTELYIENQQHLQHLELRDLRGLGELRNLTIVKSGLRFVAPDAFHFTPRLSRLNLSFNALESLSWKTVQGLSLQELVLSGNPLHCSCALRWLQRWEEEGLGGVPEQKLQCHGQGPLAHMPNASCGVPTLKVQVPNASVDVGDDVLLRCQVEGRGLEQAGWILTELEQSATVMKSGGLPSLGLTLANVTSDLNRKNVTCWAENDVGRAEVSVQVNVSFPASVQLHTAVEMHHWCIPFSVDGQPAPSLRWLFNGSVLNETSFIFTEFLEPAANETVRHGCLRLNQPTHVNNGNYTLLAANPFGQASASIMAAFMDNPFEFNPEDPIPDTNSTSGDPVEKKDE

B1
Kd [1]: 10 nM
Kd [2]: ~40 nM

B2
Kd [3]: ~12 nM

B3
Kd [4]: ~58 nM

B4
Kd [5]: ~3 nM

B5
Kd [6]: ~87 nM
binding result [7]: no binding (tested: 25-500 nM propeptide)
binding result [8]: no binding (tested: 25-500 nM propeptide)

B6
Kd [9]: ~87 nM
Kd [10]: ~2 nM
Kd [11]: ~1 nM
